Paper PMC8123688, “In Vivo Imaging of Thyroid Cancer with ^99mTc-TR1401 and ^99mTc-TR1402: A Comparison Study in Dogs” (Journal of Clinical Medicine, 2021)

Biological target: T1, TSH receptor (TSHR) on human ML-1 cells (human (endogenous in ML-1), UniProt P16473 21-764)
T1 construct: thyrotropin receptor (TSHR) expressed on the TSHR-positive human thyroid cancer cell line ML-1; also called TSH receptors; source: endogenous, on human ML-1 cells
Test: radioligand binding; real-time kinetic binding assay with LigandTracer; 10^6 ML-1 cells seeded in a tilted Petri dish; 2 mL of 30 nM radiolabeled ligand in culture medium for 1 h, then medium without ligand to follow release; Kd from binding/release curve (GraphPad Prism)
Conditions: one partner purified

T1 sequence (P16473 21-764): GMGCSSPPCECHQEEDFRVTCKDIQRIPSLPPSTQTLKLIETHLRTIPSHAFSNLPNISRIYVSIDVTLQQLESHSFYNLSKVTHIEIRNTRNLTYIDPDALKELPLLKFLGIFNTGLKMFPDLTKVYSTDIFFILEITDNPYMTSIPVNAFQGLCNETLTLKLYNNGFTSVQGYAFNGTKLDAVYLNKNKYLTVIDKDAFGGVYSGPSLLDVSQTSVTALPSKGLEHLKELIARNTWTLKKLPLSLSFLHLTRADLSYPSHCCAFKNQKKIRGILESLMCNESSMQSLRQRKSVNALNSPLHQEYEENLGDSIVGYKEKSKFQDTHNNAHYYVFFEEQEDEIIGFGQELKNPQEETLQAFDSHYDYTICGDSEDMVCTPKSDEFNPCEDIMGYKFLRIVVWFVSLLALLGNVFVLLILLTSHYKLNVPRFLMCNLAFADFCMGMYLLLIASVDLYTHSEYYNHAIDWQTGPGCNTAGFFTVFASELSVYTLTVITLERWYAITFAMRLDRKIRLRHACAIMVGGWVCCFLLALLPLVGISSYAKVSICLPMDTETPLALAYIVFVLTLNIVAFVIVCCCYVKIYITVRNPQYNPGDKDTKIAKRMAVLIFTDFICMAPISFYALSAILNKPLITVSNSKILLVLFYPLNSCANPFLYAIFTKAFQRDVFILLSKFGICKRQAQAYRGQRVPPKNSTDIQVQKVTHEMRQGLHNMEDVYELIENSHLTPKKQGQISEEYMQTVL

B1: 99mTc-Thyrogen, radiolabeled recombinant human TSH (Thyrogen) (ligand)
chain 1: not shown
chain 2: FCIPTEYTMHIERRECAYCLTINTTICAGYCMTRDINGKLFLPKYALSQDVCTYRDFIYRTVEIPGCPLHVAPYFSYPVALSCKCGKCNTDYSDCIHEAIKTNYCTKPQKSY
modifications: technetium-99m label (sites and chain not stated) | technetium-99m label (sites and chain not stated)
notes: glycoprotein hormones alpha chain (alpha subunit of TSH), human; recombinant human TSH (Thyrogen), so named in the abstract; thyrotropin (TSH) beta subunit, human; Thyrogen is a drug product; also called rhTSH; radiolabeled human recombinant TSH
- Kd: 8.4 nM
